Results taken from patent publication US20190062389A1.

Assays:
[1] = molecular target: HLA-A*02:06 molecule (product of HLA-A*02:06 gene) on RA2.6 cells (human); test: flow cytometry, RA2.6 cells, peptide dilution series, BB7.2 staining
[2] = molecular target: HLA-A*02:01 molecule (product of HLA-A*02:01 gene) on T2 cells (human); test: flow cytometry, T2 cells with added b2m, peptide dilution series, BB7.2 staining
[3] = molecular target: HLA-A*24:02 molecule (product of HLA-A*24:02 gene) on C1R-A24 cells (human); test: flow cytometry, acid-stripped C1R-A24 cells with added b2m, peptide dilution series, 17A12 staining

B1: GPC3-derived peptide … (SEQ ID NO: 5) (peptide)
peptide: SLTPQAFEF
modifications: not checked
Binding Experiment Data (log Kd) (log Kd (concentration unit not given)) [1]: -4.52 | Binding Experiment Data (log Kd) (log Kd (concentration unit not given)) [2]: -4.93 | Binding Experiment Data (log Kd) (log Kd (concentration unit not given)) [3]: -7.11
